Drawing on the supplement of paper PMC12042874, this text covers amyloid nucleation score for 131 substances.

The nature of the series: amyloid nucleation score (Sup35N fusion, yeast selection) (log enrichment); library NNK3; higher = more nucleation; inactive = no reads after selection. In short, it runs like this: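 After 24 hours of induction with 100 μM copper sulfate, psi-negative yeast expressing peptides of 20 random codons fused to Sup35N were grown for 7 days at 30°C on medium lacking adenine and uracil. Input and output plasmid inserts were sequenced with Illumina, and sequences with under 100 input reads were discarded. Scores for nucleation are the DiMSum log enrichment of output over input reads, centred on the mode score of non-aggregating sequences.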

± gives the uncertainty stated by the source.

For CELYHMNRDF, the amyloid nucleation score result was “inactive”.
The entry for GHRHQFSHATVNDVKSRV is “inactive”; for HNPVG it is 1.23 ± 0.08; for YVGPKMFLVWVCDATDVGKW it is “inactive”.
To IGPVVGGYRYMCPASDHK belongs “inactive”; to CQWANY, -0.508 ± 1.
The entry for SQRELYH is “inactive”.
The substance RVCCVGYLSNLLTMKGTGID yielded an amyloid nucleation score of 1.81 ± 0.059.
As to LSNGDAKTSRTASVRCLRYA, the amyloid nucleation score result is “inactive”.
To NFRPEKHINLMVCKSLPFV belongs 0.705 ± 0.21.
To SKESCRCLSWCGPEPRSCIA belongs “inactive”.
The entry for VVDLIFLSLF is “inactive”.
As for RSVNGVTLGTARYHAVERVL, the amyloid nucleation score result was “inactive”.
Turning to VSGMDCSGGFASVESMASYR, the amyloid nucleation score result was “inactive”.
To WFTVHLIVCSVRRLDSFVLP belongs “inactive”.
The entry for ARHVENSAKGFVGYLRRMHV is “inactive”; for CIVYSFSRGFTSNGGEGYRW it is 0.67 ± 0.22.
The entry for TNLLM is “inactive”; for WIVVDKSNQCGLGYVLWYNF it is “inactive”.
On to LYGTFVNSCQRFNLLDV, for which the amyloid nucleation score result was “inactive”.
Take RLVVNQHSPDKP: the amyloid nucleation score entry is “inactive”.
The entry for DAGYDVVLGSMAMVSVGTCL is “inactive”.
The entry for ASLISILLALDMSMGLSLEP is “inactive”; for SCDLFSC it is “inactive”; for SCYRVNLLGVYWRVMVDVLV it is “inactive”.
To AMEIRNVQELSIGPGNWMET belongs “inactive”.
With VKTKPFHLRYR, the amyloid nucleation score entry was “inactive”.
On to VTNSFSIFSGIIVHSTSLMV, for which the amyloid nucleation score was found to be 0.032 ± 0.6.
The entry for REWCLEVYHWYITRSHVYWC is “inactive”; for CCRLDDIRQ it is “inactive”; for ALESTMVWLSQRQGRFVHSL it is -0.284 ± 0.7.
To LFTYVPDFSGLTLSTICCLV belongs 0.458 ± 0.35; to GELPLRVKVKSFHTDTSLRK, 0.614 ± 0.29; to LGNTCKIDWRISYHMTPSDI, “inactive”.
For the substance CRRNTVFMNRVYNNGLFEEC, the amyloid nucleation score entry is “inactive”.
To LQHFVR belongs “inactive”; to GLCSFR, “inactive”; to VFVAMNVFMVWICRLQGSLT, 0.508 ± 0.33.
The entry for SRWTEACI is “inactive”; for CWQFK it is 0.22 ± 0.9; for NFEIFSRVQWDLC it is “inactive”.
For the substance HSRLFLGNVTCYWVHEVSLI, the amyloid nucleation score entry is “inactive”.
To YARYNTLVLSAKPPLLYDSW belongs “inactive”.
Consider RAYFGCFQGFILLFSYLMC, for which the amyloid nucleation score entry was “inactive”.
The figure for NLRWSLIFMFGDCWGACGCG is 0.476 ± 0.23.
To CSRIRLMGFDWLAPIPHA belongs “inactive”.
The entry for IFLKHIPRHSSSKTMTANCP is “inactive”; for VYILFNWSRPSCHLIEHFRA it is “inactive”.
For the substance CCSGLAMAFRFYASYSGAIY, the amyloid nucleation score entry is “inactive”.
To YNMCLRDRVLFVIIDVRIFW belongs 0.035 ± 0.35; to NLFSRIVHSGLRMSTNCILI, “inactive”.
The entry for SWYEYCLINSLRKGSGYKEP is “inactive”; for CWRVCGARYLWA it is “inactive”; for GISYLVRNSGAKRGD it is “inactive”.
With FGEYKMISVEYLVLEIVRYM, the amyloid nucleation score entry was “inactive”.
To SGGYDQSQALNRLVGWRVYC belongs -0.301 ± 1; to VEEGFGLMSKIAHSIGLREC, -0.278 ± 1.4; to IATCTRFIDYVYRDVSSGPC, 0.725 ± 0.11.
The entry for ANVWPISPLSGGVRLWMFGR is “inactive”; for AVYSWCARTYSILSTLRGEF it is “inactive”; for RCIGALRTRPSTEGRTSLRI it is “inactive”.
The figure for TFNYYACTPIKFVWYLGTCP is 2.54 ± 0.072; for ILYRCDCAFFYPLGLLFSRC it is “inactive”.
In the case of SVWMGVEPGHYLYQRVLGLV, the amyloid nucleation score result is “inactive”.
To SVTLGWSTRCCF belongs 1.27 ± 0.096; to ECRYIPLYREFTRRVSMSGL, “inactive”.
The figure for CCGGFIVMQQAGGSPIDGQG is 0.29 ± 0.2.
To GAVWFIRRRPKDRIRRVSLW belongs “inactive”.
Substance IRNALIYIVISLKFGRRGCY yielded an amyloid nucleation score of 0.107 ± 0.28.
To FTAFMFS belongs “inactive”.
The entry for SCYDVFSFYPSPFCLTNSVA is “inactive”.
To ITRLNSMAMCYLIRFLS belongs “inactive”; to LFLMLG, “inactive”.
For IVESQRDASVLRSIPSIRIN, the amyloid nucleation score entry is “inactive”.
The entry for RTWSAKGYDNIRDVGLNSES is “inactive”; for CLQSARYKIFCFFYFDVLSH it is “inactive”; for CSTYSRLRYIAYCWVVRP it is “inactive”.
To IKQGYRAHLWWIVVNRLMFD belongs “inactive”; to FHFFYYTLFNCHHGLFTSFF, “inactive”; to QFMNKIIMCLGSF, -0.263 ± 0.58.
To LFVLGPDRLDCAQCKLLRDR belongs “inactive”; to VKLNYISLDENVRSVKQVMI, “inactive”; to QWSNCDMASAYYAYRNLNAD, “inactive”.
Consider HTGMHCTMGESRTSV, for which the amyloid nucleation score worked out at 0.375 ± 0.18.
To SFHASGQSSLYKKGDLSTCV belongs “inactive”; to NKWQRNSSNKFTCAQVPFFA, “inactive”; to DLDCGTSDMLCCRLVCC, “inactive”.
To TYMTYERVYL belongs “inactive”; to SCIRNSLRLNSFSVFFLAFH, “inactive”.
To SRRVN belongs “inactive”.
On to WQITTRTIDRPHYKHPGVPL, for which the amyloid nucleation score result was “inactive”.
As to QSSLLSTVNGVFKSDTRVRV, the amyloid nucleation score entry is “inactive”.
The figure for FRIIQVVRYDMMGTRLDMYQ is 0.938 ± 0.19; for VLSQRVPQMHMTNGVTEASV it is “inactive”; for SCAYGLGCMLMVKHN it is “inactive”.
The entry for STTVTGLYKNFRHYVSGRCG is “inactive”; for PLLLHVST it is “inactive”.
The figure for VSFYSSCVWIDARSCDYCYF is 2.79 ± 0.058.
In the case of PWMHLYRHAMFISAHLRYSC, the amyloid nucleation score entry is “inactive”.
Consider AIVFNFDYLLYLQNRSNLMH, for which the amyloid nucleation score entry is “inactive”.
The entry for SLIQY is “inactive”; for FFPDGDQTYMA it is “inactive”.
To RTLSNFSGKVVLLI belongs “inactive”; to DHQLSGGDGVGSMYSTEGKL, “inactive”; to RYVLR, “inactive”.
The entry for CFLSGWTLTVSVLLVDYRKL is “inactive”.
Consider VFIGSVGFSDLWKLSVAYNY, for which the amyloid nucleation score entry is “inactive”.
Substance IINFIVCMMSVQNMCCALFG registered an amyloid nucleation score of 1.39 ± 0.1.
The entry for YSDFAWDPRSKNKYGWHPRL is “inactive”; for SKSARVLSFYYPYFFISINL it is “inactive”.
The entry for CLPVARGQMR is “inactive”.
The entry for YPRKFINLNRHWVVVNVFRM is “inactive”; for SMKEVLMTSGTSNVITSGGD it is “inactive”.
Take HVIFFYILAFYNHSMGRTAV: the amyloid nucleation score result was “inactive”.
The figure for ISFSWHF is 0.789 ± 0.17; for IDRVMCNHDSIRQQLSLLSV it is “inactive”.
The entry for GSVFTRFVSREVFCWDACCR is “inactive”; for GYRLRQTSARYIAVEWSWKC it is “inactive”.
To AKGAMLCTMT belongs “inactive”; to CHVLWGCCIRSQVCCSAYNV, 2.06 ± 0.073; to SKGSWHVFNKGSEWVKYFGM, “inactive”.
In the case of LLEIDVGISRCLGVTSETFW, the amyloid nucleation score result was “inactive”.
To SKIFVNIDYVKVFRMICEWR belongs “inactive”.
The entry for QFPSFANIIANCPLGFLWYA is “inactive”; for LEYLKV it is “inactive”; for YKPLFVCSRHLMNRELCTGY it is “inactive”.
To YFPSSCCNDFVFSSLEFQSM belongs 2.12 ± 0.055; to GMQPVQQ, “inactive”; to DIVGHIKSLMFLVLEDTSSP, “inactive”.
Take STCYSCVMLMVGS: the amyloid nucleation score result was “inactive”.
To CNISSFNT belongs “inactive”.
